Measurements as given in patent US20020142982A1, “Method for regulating angiogenesis” (priority 1999, published 2002).

Target: HA-tagged wild-type Akt (UniProt P31749)
Assay: cell-based or functional assay

restoration of S1P-induced HUVEC chemotaxis by increasing wild-type Akt virus: 65%
Substance: T236A EDG-1 mutant receptor (from UniProt P21453 1-382)
